# Assay results taken from patent US20080182978A1, “ANTI-NGF ANTIBODIES AND METHODS USING SAME” (RINAT NEUROSCIENCE CORP, priority 2002, published 2008).
# B1: E3: humanized, affinity matured anti-NGF antagonist antibody; variable regions SEQ ID NO:1 and 2; human IgG2a (A330P331 to S330S331), kappa (antibody, V domains shown)
# VH: QVQLQESGPGLVKPSETLSLTCTVSGFSLIGYDLNWIRQPPGKGLEWIGIIWGDGTTDYNSAVKSRVTISKDTSKNQFSLKLSSVTAADTAVYYCARGGYWYATSYYFDYWGQGTLVTVS
# VL: DIQMTQSPSSLSASVGDRVTITCRASQSISNNLNWYQQKPGKAPKLLIYYTSRFHSGVPSRFSGSGSGTDFTFTISSLQPEDIATYYCQQEHTLPYTFGQGTKLEIKRT
# modifications: human IgG2a constant (A330S/P331S) and kappa constant missing
# Assay: Dose response of E3 on body weight in arthritic rats (Example 9)
# Format: in vivo, rat
# Description: The ability of E3 to produce reduction in pain in arthritic rats was further investigated by examining the dose response relationship between E3 administration and pain reduction. Rats were treated with adjuvant to induce arthritis as described above. Ten rats not injected with adjuvant were used as non-arthritic controls. Fourteen days after adjuvant injection, animals were qualified into the study based on the criteria stated above, randomized into eight groups of ten rats and tested for the intensity of their vocalization response. They were then dosed on day 14 with saline, or 0.003 mg/kg, 0.01 mg/kg, 0.03 mg/kg, 0.1 mg/kg, 0.3 mg/kg, 1 mg/kg or 5 mg/kg of E3 antibody as described above. Animals were tested for their vocalization response on days 16, 18, 20, and 24. Animals were redosed with saline or the same dose of E3 on day 18 after the vocalization testing. Animals were also weighed each day, starting at day 14. Thus, animals were dosed twice with a given dose of antibody or saline on days 14 and 18, and assessed for pain five times, on days 14, 16, 18, 20 and 24. Data are shown in Tables 20-22 and in FIGS. 20-22.
# The effect of treating animals with various doses of anti-NGF antibody E3 on body weight was statistically analyzed by using two-way ANOVA to compare the results obtained pairwise between arthritic animals treated with vehicle with those treated with a given dose of antibody E3. […] At all higher dose of E3, the difference between treated and untreated arthritic animals was significant (p= or <0.0001). […]
# [1] = E3 0.1 mg/kg on days 14+18, day 17
# [2] = E3 0.1 mg/kg on days 14+18, day 18
# [3] = E3 0.1 mg/kg on days 14+18, day 20
# [4] = E3 0.1 mg/kg on days 14+18, day 21
# [5] = E3 0.1 mg/kg on days 14+18, day 23
# [6] = E3 0.1 mg/kg on days 14+18, day 24
# [7] = E3 0.3 mg/kg on days 14+18, day 14
# [8] = E3 0.3 mg/kg on days 14+18, day 15
# [9] = E3 0.3 mg/kg on days 14+18, day 16
# [10] = E3 0.3 mg/kg on days 14+18, day 17
# [11] = E3 0.3 mg/kg on days 14+18, day 18
# [12] = E3 0.3 mg/kg on days 14+18, day 20
# [13] = E3 0.3 mg/kg on days 14+18, day 21
# [14] = E3 0.3 mg/kg on days 14+18, day 23
# [15] = E3 0.3 mg/kg on days 14+18, day 24
# [16] = E3 1.0 mg/kg on days 14+18, day 14
# [17] = E3 1.0 mg/kg on days 14+18, day 15
# [18] = E3 1.0 mg/kg on days 14+18, day 16
# [19] = E3 1.0 mg/kg on days 14+18, day 17
# [20] = E3 1.0 mg/kg on days 14+18, day 18
# [21] = E3 1.0 mg/kg on days 14+18, day 20
# [22] = E3 1.0 mg/kg on days 14+18, day 21
# [23] = E3 1.0 mg/kg on days 14+18, day 23
# [24] = E3 1.0 mg/kg on days 14+18, day 24
# [25] = E3 5.0 mg/kg on days 14+18, day 14
# [26] = E3 5.0 mg/kg on days 14+18, day 15
# [27] = E3 5.0 mg/kg on days 14+18, day 16
# [28] = E3 5.0 mg/kg on days 14+18, day 17
# [29] = E3 5.0 mg/kg on days 14+18, day 18
# [30] = E3 5.0 mg/kg on days 14+18, day 20
# [31] = E3 5.0 mg/kg on days 14+18, day 21
# [32] = E3 5.0 mg/kg on days 14+18, day 23
# [33] = E3 5.0 mg/kg on days 14+18, day 24
molecule,measurement,setting,value
B1,Body weight normalized to day 14,"E3 0.1 mg/kg on days 14+18, day 16",101.07
same,Body weight normalized to day 0,[1],115.99
same,Body weight normalized to day 14,[1],101.89
same,Body weight normalized to day 0,[2],118.01
same,Body weight normalized to day 14,[2],103.69
same,Body weight normalized to day 0,[3],122.17
same,Body weight normalized to day 14,[3],107.36
same,Body weight normalized to day 0,[4],123.49
same,Body weight normalized to day 14,[4],108.50
same,Body weight normalized to day 0,[5],124.35
same,Body weight normalized to day 14,[5],109.25
same,Body weight normalized to day 0,[6],123.77
same,Body weight normalized to day 14,[6],108.77
same,Body weight normalized to day 0,"E3 0.3 mg/kg on days 14+18, day 0",100.00
same,Body weight normalized to day 0,"E3 0.3 mg/kg on days 14+18, day 1",99.26
same,Body weight normalized to day 0,"E3 0.3 mg/kg on days 14+18, day 2",102.98
same,Body weight normalized to day 0,"E3 0.3 mg/kg on days 14+18, day 3",106.95
same,Body weight normalized to day 0,"E3 0.3 mg/kg on days 14+18, day 4",110.50
same,Body weight normalized to day 0,"E3 0.3 mg/kg on days 14+18, day 7",120.03
same,Body weight normalized to day 0,"E3 0.3 mg/kg on days 14+18, day 8",121.38
same,Body weight normalized to day 0,"E3 0.3 mg/kg on days 14+18, day 9",121.57
same,Body weight normalized to day 0,"E3 0.3 mg/kg on days 14+18, day 10",118.27
same,Body weight normalized to day 0,"E3 0.3 mg/kg on days 14+18, day 11",116.02
same,Body weight normalized to day 0,[7],108.43
same,Body weight normalized to day 14,[7],100.00
same,Body weight normalized to day 0,[8],109.59
same,Body weight normalized to day 14,[8],101.05
same,Body weight normalized to day 0,[9],111.54
same,Body weight normalized to day 14,[9],102.88
same,Body weight normalized to day 0,[10],113.57
same,Body weight normalized to day 14,[10],104.76
same,Body weight normalized to day 0,[11],116.13
same,Body weight normalized to day 14,[11],107.11
same,Body weight normalized to day 0,[12],120.62
same,Body weight normalized to day 14,[12],111.26
same,Body weight normalized to day 0,[13],122.88
same,Body weight normalized to day 14,[13],113.31
same,Body weight normalized to day 0,[14],125.36
same,Body weight normalized to day 14,[14],115.59
same,Body weight normalized to day 0,[15],125.33
same,Body weight normalized to day 14,[15],115.58
same,Body weight normalized to day 0,"E3 1.0 mg/kg on days 14+18, day 0",100.00
same,Body weight normalized to day 0,"E3 1.0 mg/kg on days 14+18, day 1",98.81
same,Body weight normalized to day 0,"E3 1.0 mg/kg on days 14+18, day 2",103.18
same,Body weight normalized to day 0,"E3 1.0 mg/kg on days 14+18, day 3",106.52
same,Body weight normalized to day 0,"E3 1.0 mg/kg on days 14+18, day 4",110.52
same,Body weight normalized to day 0,"E3 1.0 mg/kg on days 14+18, day 7",121.54
same,Body weight normalized to day 0,"E3 1.0 mg/kg on days 14+18, day 8",124.28
same,Body weight normalized to day 0,"E3 1.0 mg/kg on days 14+18, day 9",125.60
same,Body weight normalized to day 0,"E3 1.0 mg/kg on days 14+18, day 10",124.11
same,Body weight normalized to day 0,"E3 1.0 mg/kg on days 14+18, day 11",121.27
same,Body weight normalized to day 0,[16],111.72
same,Body weight normalized to day 14,[16],100.00
same,Body weight normalized to day 0,[17],112.30
same,Body weight normalized to day 14,[17],100.53
same,Body weight normalized to day 0,[18],115.00
same,Body weight normalized to day 14,[18],102.95
same,Body weight normalized to day 0,[19],118.08
same,Body weight normalized to day 14,[19],105.74
same,Body weight normalized to day 0,[20],121.16
same,Body weight normalized to day 14,[20],108.46
same,Body weight normalized to day 0,[21],126.90
same,Body weight normalized to day 14,[21],113.57
same,Body weight normalized to day 0,[22],130.41
same,Body weight normalized to day 14,[22],116.71
same,Body weight normalized to day 0,[23],137.81
same,Body weight normalized to day 14,[23],123.35
same,Body weight normalized to day 0,[24],138.93
same,Body weight normalized to day 14,[24],124.41
same,Body weight normalized to day 0,"E3 5.0 mg/kg on days 14+18, day 0",100.00
same,Body weight normalized to day 0,"E3 5.0 mg/kg on days 14+18, day 1",98.25
same,Body weight normalized to day 0,"E3 5.0 mg/kg on days 14+18, day 2",101.82
same,Body weight normalized to day 0,"E3 5.0 mg/kg on days 14+18, day 3",105.47
same,Body weight normalized to day 0,"E3 5.0 mg/kg on days 14+18, day 4",109.29
same,Body weight normalized to day 0,"E3 5.0 mg/kg on days 14+18, day 7",119.77
same,Body weight normalized to day 0,"E3 5.0 mg/kg on days 14+18, day 8",121.96
same,Body weight normalized to day 0,"E3 5.0 mg/kg on days 14+18, day 9",123.04
same,Body weight normalized to day 0,"E3 5.0 mg/kg on days 14+18, day 10",120.00
same,Body weight normalized to day 0,"E3 5.0 mg/kg on days 14+18, day 11",117.97
same,Body weight normalized to day 0,[25],111.58
same,Body weight normalized to day 14,[25],100.00
same,Body weight normalized to day 0,[26],113.33
same,Body weight normalized to day 14,[26],101.61
same,Body weight normalized to day 0,[27],116.06
same,Body weight normalized to day 14,[27],104.09
same,Body weight normalized to day 0,[28],119.14
same,Body weight normalized to day 14,[28],106.85
same,Body weight normalized to day 0,[29],122.14
same,Body weight normalized to day 14,[29],109.53
same,Body weight normalized to day 0,[30],128.60
same,Body weight normalized to day 14,[30],115.32
same,Body weight normalized to day 0,[31],132.82
same,Body weight normalized to day 14,[31],119.11
same,Body weight normalized to day 0,[32],140.79
same,Body weight normalized to day 14,[32],126.36
same,Body weight normalized to day 0,[33],141.77
same,Body weight normalized to day 14,[33],127.25
same,change in body weight vs vehicle-treated arthritic animals (two-way ANOVA),"data normalized to day 0, 0.03 mg/kg (p<0.002)",significant change in body weight
same,change in body weight vs vehicle-treated arthritic animals (two-way ANOVA),"data normalized to day 14, 0.03 mg/kg (p<0.005)",significant change in body weight
same,weight loss compared with saline treated arthritic rats,"rat, in vivo",less apparent weight loss than saline treated arthritic rats
